Source: US6974863 (INDIANA UNIVERSITY RESEARCH AND TECHNOLOGY, dated 2005)

Assays:
[1] = target: 4-1BB-AP binding sites (putative cell-surface 4-1BB ligand) on mature B cells and macrophages; test: competition on A20 cells: 20 µg/ml rs4-1BB (50 fold excess) before 4-1BB-AP at 375 ng/ml as competitor; AP activity
[2] = target: T1, human vitronectin (human, UniProt P04004 20-478); test: ELISA, human vitronectin immobilized on microtiter plates, AP activity (data not shown)
T1 construct: Bought protein
Experimental: Chalupny and colleagues (132) have proposed that 4-1BB Rg, a fusion protein consisting of the extracellular domain of 4-1BB and the Fc region of human IgG, bound to the extracellular matrix (ECM). The highest levels of 4-1BB Rg binding was to human vitronectin. In data not shown, an ELISA was performed using 4-1BB-AP and human vitronectin (Yelios Pharmaceuticals/GIBCO-BRL, Grand Island, N.Y.) immobilized at 0.007 μg–10 μg per well on microtiter plates. No binding of 4-1BB-AP based on AP activity was observed. To rule out the possibility that 4-1BB-AP was binding to proteins extrinsically attached to the cell surface (possible extracellular matrix components), B-cell lymphomas were washed in acid conditions prior to the binding assay (115). 4-1BB-AP still bound specifically to mature B-cell lymphomas (data not shown). We are currently determining whether a 4-1BB-ligand specifically expressed on B cells and macrophages exists, and whether 4-1BB-AP may bind to the ECM under particular binding conditions. It is possible that the ECM could facilitate the binding of 4-1BB to a specific cell-surface ligand.

[3] = target: T2, mutated p56lck, construct C2 (cys 23-ser) (murine, UniProt P06240 2-509); test: coimmunoprecipitation with 53A2, in vitro kinase labeling, HeLa cells
T2 construct: Expressed in HeLa cells with the vaccinia T7 system; also called mutant p56^lck C2
Description: (§1) High levels of coexpression have been achieved previously with this system to facilitate interactions between CD4 and p56^lck. To ensure consistent expression of 4-1BB, the transfected HeLa cells were briefly labeled with [^35S] cysteine before harvest. 4-1BB expression was monitored by immunoprecipitation of ^35S-labeled 4-1BB with 53A2.
(§2) FIGS. 32a–c show an analysis of the association of 4-1BB and p56^lck HeLa cells. […] Lysates were immunoprecipitated with antibodies to p56^lck and 4-1BB and labeled with [γ-^32P] ATP by the in vitro kinase reaction. The positions of p56^lck and 4-1BB are indicated to the right. Total HeLa celll lysates were immunoblotted with antibody top56^lck assay thep56^lck expression. FIGS. 32b and 32c show an immune complex kinase assay. Aliquots of the saline lysates were immunoprecipitated with antip56^lck serum (FIG. 32b) or 53A2 (FIG. 32c) followed by the in vitro kinase reaction with [γ-^32P] ATP as described in the legend to FIG. 30. […] HeLa celis were grown to 80% confluency on 100-mm petri dishes in DMEM containing 10% FBS and antibiotics. Cells were infected with 1×10^8 pfu of vaccinia virus expressing T7 RNA polymerase (136) 30 min before transfection. DNA was transfected in liposomes (Lipofectin, GIBCO, BRL). 15 μg DNA and 50 μl liposome diluted into 5 ml serum-free DMEM were incubated in 12×75 mm polystyrene tubes at room temperature for 15 min. […]

[4] = target: T3, mutated p56lck, construct C1 (cys 20-ser) (murine, UniProt P06240 2-509); test: as above
T3 construct: Expressed in HeLa cells with the vaccinia T7 system; also called mutant p56^lck C1
Description: as §1, §2

T2 sequence (P06240 other isoform, or with tags, fused parts or gaps limits assumed, change not shown): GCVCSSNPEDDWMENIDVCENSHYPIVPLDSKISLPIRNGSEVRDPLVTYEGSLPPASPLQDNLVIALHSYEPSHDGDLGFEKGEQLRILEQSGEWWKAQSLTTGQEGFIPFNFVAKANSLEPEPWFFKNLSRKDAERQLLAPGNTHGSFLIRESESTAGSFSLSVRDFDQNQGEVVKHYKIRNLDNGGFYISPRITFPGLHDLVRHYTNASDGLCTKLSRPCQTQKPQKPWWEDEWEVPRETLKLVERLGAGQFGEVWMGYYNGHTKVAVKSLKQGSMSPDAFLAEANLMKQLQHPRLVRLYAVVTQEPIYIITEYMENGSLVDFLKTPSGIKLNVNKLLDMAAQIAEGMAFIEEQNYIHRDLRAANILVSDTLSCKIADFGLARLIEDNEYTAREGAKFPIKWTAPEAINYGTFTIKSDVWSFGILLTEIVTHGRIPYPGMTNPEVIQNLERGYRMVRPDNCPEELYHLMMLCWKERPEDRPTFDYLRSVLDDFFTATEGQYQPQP
T3 sequence (P06240 other isoform, or with tags, fused parts or gaps limits assumed, change not shown): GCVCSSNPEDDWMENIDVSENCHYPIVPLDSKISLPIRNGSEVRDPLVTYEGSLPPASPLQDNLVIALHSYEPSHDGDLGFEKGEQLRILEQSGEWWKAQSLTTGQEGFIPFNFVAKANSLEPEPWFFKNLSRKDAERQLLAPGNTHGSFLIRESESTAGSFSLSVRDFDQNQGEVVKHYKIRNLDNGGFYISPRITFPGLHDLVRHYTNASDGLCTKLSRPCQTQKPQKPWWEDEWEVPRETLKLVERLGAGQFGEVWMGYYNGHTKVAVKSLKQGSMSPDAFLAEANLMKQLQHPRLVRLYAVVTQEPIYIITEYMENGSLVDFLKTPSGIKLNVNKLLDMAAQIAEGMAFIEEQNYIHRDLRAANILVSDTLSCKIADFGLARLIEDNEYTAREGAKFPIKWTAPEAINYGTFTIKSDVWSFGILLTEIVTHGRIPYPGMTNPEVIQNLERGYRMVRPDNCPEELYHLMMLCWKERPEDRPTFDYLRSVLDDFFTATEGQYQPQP
T1 sequence (P04004 20-478 limits assumed): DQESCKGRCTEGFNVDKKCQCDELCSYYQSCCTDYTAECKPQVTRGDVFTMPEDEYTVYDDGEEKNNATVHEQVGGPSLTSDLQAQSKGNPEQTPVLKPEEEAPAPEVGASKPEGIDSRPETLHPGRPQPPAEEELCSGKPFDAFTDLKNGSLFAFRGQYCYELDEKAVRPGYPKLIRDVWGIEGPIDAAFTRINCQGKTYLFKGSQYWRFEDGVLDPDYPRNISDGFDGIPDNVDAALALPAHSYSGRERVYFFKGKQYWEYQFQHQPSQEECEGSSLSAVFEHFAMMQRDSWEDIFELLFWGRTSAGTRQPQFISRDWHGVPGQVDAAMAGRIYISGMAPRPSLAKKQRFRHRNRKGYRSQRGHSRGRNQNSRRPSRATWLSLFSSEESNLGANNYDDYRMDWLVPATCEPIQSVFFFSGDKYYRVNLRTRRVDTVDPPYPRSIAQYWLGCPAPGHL

## recombinant soluble 4-1BB protein (extracellular domain of mouse 4-1BB) (from UniProt P20334 24-187) (receptor)
[1]
  percent of 4-1BB-AP binding blocked: 70%

B1: 4-1BB-AP fusion protein (extracellular domain of 4-1BB fused to human placental alkaline phosphatase) (other)
chain: VQNSCDNCQPGTFCRKYNPVCKSCPPSTFSSIGGQPNCNICRVCAGYFRFKKFCSSTHNAECECIEGFHCLGPQCTRCEKDCRPGQELTKQGCKTCSLGTFNDQNGTGVCRPWTNCSLDGRSVLKTGTTEKDVVCGPPVVSFSPSTTISVTPEGGPGGHSLQVL
notes: Signal peptide and entire extracellular domain of 4-1BB up to the first hydrophobic residue of the transmembrane region, joined in frame upstream of AP; secreted by NIH-3T3 transfectants; also called 4-1BB-Alkaline Phosphatase; 85 kDa fusion protein; not shown: human placental alkaline phosphatase as coded in the APtag-1 vector
[2]
  binding result: no binding (tested: 0.007 µg-10 µg per well)

B2: mouse receptor protein 4-1BB (full length) (receptor)
chain: VQNSCDNCQPGTFCRKYNPVCKSCPPSTFSSIGGQPNCNICRVCAGYFRFKKFCSSTHNAECECIEGFHCLGPQCTRCEKDCRPGQELTKQGCKTCSLGTFNDQNGTGVCRPWTNCSLDGRSVLKTGTTEKDVVCGPPVVSFSPSTTISVTPEGGPGGHSLQVLTLFLALTSALLLALIFITLLFSVLKWIRKKFPHIFKQPFKKTTGAAQEEDACSCRCPQEEEGGGGGYEL
notes: Native on T cells (CTLL-R8, CTLL-2, F1, splenic T cells, thymocytes) or recombinant full length in Sf-21 and HeLa cells; also tested in lysates and blots; Seen as 30 kDa monomer, 55 kDa dimer and possibly 110 kDa tetramer; homodimer not proven; also called 4-1BBP; 4-1BBL (full length cDNA construct)
[3]
  binding result: no binding
[4]
  binding result: no binding
